Assay results taken from patent publication US20250296971A1, “GASTRIC INHIBITORY PEPTIDE RECEPTOR LIGANDS” (priority 2021, published 2025).
*1 amine or outer side, *2 acyl side, *3 side chain or, on linkers, in order; H or OH if unused. Bridges are numbered along the chain shown (N, C = ends). Primed or numbered codes have the meaning given here. Where no end group is shown, it is not given here. Side-chain parts run from the residue outwards. [ ]: non-standard residue; d: D form. The star is where a group is joined. Ttds = 1,13-diamino-4,7,10-trioxatridecan-succinamic acid, NCCCOCCOCCOCCCNC(=O)CCC(=O)*; NH(1-deoxy-D-glucityl) = OC[C@@H](O)[C@@H](O)[C@H](O)[C@@H](O)CN*; (dE)(AGLU) = D-glutamic acid bearing 1-amino-1-deoxy-D-glucitol; APAc″ = 4-amino-1-carboxymethylpiperidine, NC1CCN(CC(=O)*)CC1; dE(AGLU) = D-glutamic acid bearing 1-amino-1-deoxy-D-glucitol; Ttds(4) = 1,13-diamino-4,7,10-trioxatridecan-succinamic acid; Pro(trans-4-NH2) = O=C([C@@H]1C[C@@H](N[*:3])CN1[*:1])[*:2]; DOTA = O=C(O)CN1CCN(CC(=O)O)CCN(CC(=O)*)CCN(CC(=O)O)CC1; NODAGA = O=C(O)CN1CCN(CC(=O)O)CCN(C(CCC(=O)*)C(=O)O)CC1; N4Ac = bis-(2-amino-ethylamine)-methyl-propionic acid; Trp(5-Cl) = N[C@@H](Cc1c[nH]c2ccc(Cl)cc12)C(=O)O; Pyridine(2,6-diCH2) = c1cc(C[*:1])nc(C[*:2])c1; Trp(5-F) = N[C@@H](Cc1c[nH]c2ccc(F)cc12)C(=O)O; Trp(6-F) = N[C@@H](Cc1c[nH]c2cc(F)ccc12)C(=O)O; APAc = 4-amino-1-carboxymethylpiperidine; 1Nal = N[C@@H](Cc1cccc2ccccc12)C(=O)O; mXylylene = c1cc(C[*:1])cc(C[*:2])c1; LuDOTA = DOTA Lutetium(III) complex; Glutaryl = O=C(CCCC(=O)[*:2])[*:1]; AGLU = 1-amino-1-deoxy-D-glucitol; Hyp = O=C(O)[C@@H]1C[C@@H](O)CN1; Cysteamide = C(CS[*:3])N[*:1]; Ac6c = NC1(C(=O)O)CCCCC1; Api = NC1(C(=O)O)CCNCC1; Thp = NC1(C(=O)O)CCOCC1; Aib = CC(C)(N)C(=O)O

B1: DOTA-Ttds-Asp-Trp-5Clw-Pro-Glu-leu-[Cys(3MeBn)-Egz-Leu-Ile-AET] (peptide)
peptide: {DOTA-Ttds}-DW[Trp(5-Cl)]PE[dL]C[Ac6c]LI[Cysteamide]
modifications: linker (positions not given here) via mXylylene; not fully specified (bridges); printed as DOTA-Ttds-Asp-Trp-5Clw-Pro-Glu-leu-[Cys(3MeBn)-Egz-Leu-Ile-AET]
B2: AGLU-Glutar-APAc-Asp-Trp-5Clw-Tap-Glu-leu-[Cys(2Lut)-Apc(GaDOTA-glu(AGLU))-Leu-Ile-Cys]-APAc-glu(AGLU)-NH2 (peptide)
peptide: {AGLU-Glutaryl-APAc}-DW[Trp(5-Cl)][Pro(trans-4-NH2)]E[dL]C[Api]LIC-{APAc-dE(AGLU)-NH2}
modifications: linker 7-11 via Pyridine(2,6-diCH2); not fully specified (residue 8); also: DOTA complexed with Ga (GaDOTA)
B3: DOTA-Ttds-Asp-Trp-5Clw-Pro-Glu-leu-[Cys(3MeBn)-Apc(DOTA)-Leu-Ile-AET] (peptide)
peptide: {DOTA-Ttds}-DW[Trp(5-Cl)]PE[dL]C[Api](DOTA)LI[Cysteamide]
modifications: linker (positions not given here) via mXylylene; not fully specified (bridges); printed as DOTA-Ttds-Asp-Trp-5Clw-Pro-Glu-leu-[Cys(3MeBn)-Apc(DOTA)-Leu-Ile-AET]
B4: DOTA-PEG6-glu(AGLU)-Asp-Trp-5Clw-Tap-Glu-leu-[Cys(2Lut)-Thp-Leu-Ile-Cys]-APAc-glu(AGLU)-NH2 (peptide)
peptide: DW[Trp(5-Cl)][Pro(trans-4-NH2)]E[dL]C[Thp]LIC-{APAc-(dE)(AGLU)-NH2}
modifications: linker 7-11 via Pyridine(2,6-diCH2); not fully specified (N-terminus); printed as DOTA-PEG6-glu(AGLU)-Asp-Trp-5Clw-Tap-Glu-leu-[Cys(2Lut)-Thp-Leu-Ile-Cys]-APAc-glu(AGLU)-NH2
B5: AGLU-Glutar-Asp-Trp-5Clw-Hyp-Glu-leu-[Cys(2Lut)-Apc(GaDOTA)-Leu-Ile-Cys]-APAc-glu(AGLU)-NH2 (peptide)
peptide: DWXXEXCXLIC
modifications: N-term AGLU-Glutar; 5Clw; Hyp; leu (D-Leu); thioether cycle [Cys(2Lut)..Cys]; Apc(GaDOTA); C-term APAc-glu(AGLU)-NH2

target: human Gastric Inhibitory Peptide Receptor (human) (UniProt P48546); experiment: FACS competition with GIP-057 on CHO-K1-hGIPR cells; pIC50 category A: >8.0
Sequence (P48546 22-466 limits assumed): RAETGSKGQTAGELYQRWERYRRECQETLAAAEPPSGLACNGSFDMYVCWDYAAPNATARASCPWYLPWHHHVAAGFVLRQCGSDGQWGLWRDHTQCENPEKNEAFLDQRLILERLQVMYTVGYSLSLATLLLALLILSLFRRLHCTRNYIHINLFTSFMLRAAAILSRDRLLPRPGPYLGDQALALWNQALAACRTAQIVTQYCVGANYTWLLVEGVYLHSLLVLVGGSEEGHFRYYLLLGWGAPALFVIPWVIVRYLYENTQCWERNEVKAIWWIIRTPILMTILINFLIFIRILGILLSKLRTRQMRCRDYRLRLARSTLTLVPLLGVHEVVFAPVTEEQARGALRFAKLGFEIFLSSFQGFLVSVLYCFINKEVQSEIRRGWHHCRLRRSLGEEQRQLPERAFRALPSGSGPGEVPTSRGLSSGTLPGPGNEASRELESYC

pIC50, > 8 pic50:
{AGLU-Glutaryl}-DW[Trp(5-Cl)][Pro(trans-4-NH2)]E[dL]C[Api]([Gly-NODAGA])LIC-{APAc-dE(AGLU)-NH2} (linker 7-11 via Pyridine(2,6-diCH2)) [AGLU-Glutar-Asp-Trp-5Clw-Tap-Glu-leu-[Cys(2Lut)-Apc(NODAGA-Gly)-Leu-Ile-Cys]-APAc-glu(AGLU)-NH2], B1, {DOTA-Ttds}-DW[Trp(5-Cl)][Pro(trans-4-NH2)](DOTA)E[dL]C[Api](DOTA)LICK(DOTA)-NH2 (linker 7-11 via Pyridine(2,6-diCH2)) [DOTA-Ttds-Asp-Trp-5Clw-Tap(DOTA)-Glu-leu-[Cys(2Lut)-Apc(DOTA)-Leu-Ile-Cys]-Lys(DOTA)-NH2], {LuDOTA-dE(AGLU)-APAc}-DW[Trp(5-Cl)][Hyp]E[dL]C[Thp]LIC-{APAc-dE(AGLU)-NH2} (linker 7-11 via Pyridine(2,6-diCH2)) [LuDOTA-glu(AGLU)-APAc-Asp-Trp-5Clw-Hyp-Glu-leu-[Cys(2Lut)-Thp-Leu-Ile-Cys]-APAc-glu(AGLU)-NH2], Ac-D[Trp(5-F)][1Nal]PE[dL]C[Aib]LIC-{Ttds(4)-K(DOTA)-NH2} (linker 7-11 via mXylylene) [Ac-Asp-5Fw-1Ni-Pro-Glu-leu-[Cys(3MeBn)-Aib-Leu-Ile-Cys]-Ttds-Lys(DOTA)-NH2], {AGLU-Glutaryl-APAc″}-DW[Trp(5-Cl)][Hyp]E[dL]C[Api](DOTA)LIC-{dE(AGLU)-NH2} (linker 7-11 via Pyridine(2,6-diCH2)) [AGLU-Glutar-APAc-Asp-Trp-5Clw-Hyp-Glu-leu-[Cys(2Lut)-Apc(DOTA)-Leu-Ile-Cys]-glu(AGLU)-NH2], {AGLU-Glutaryl}-DW[Trp(5-Cl)][Pro(trans-4-NH2)]E[dL]C[Api](DOTA)LI[dC]-{APAc-dE(AGLU)-NH2} (linker 7-11 via Pyridine(2,6-diCH2)) [AGLU-Glutar-Asp-Trp-5Clw-Tap-Glu-leu-[Cys(2Lut)-Apc(DOTA)-Leu-Ile-cys]-APAc-glu(AGLU)-NH2], {DOTA-dE(AGLU)}-DW[Trp(5-Cl)][Pro(trans-4-NH2)]E[dL]C[Api]([Glutaryl-NH(1-deoxy-D-glucityl)])LIC-{APAc-dE(AGLU)-NH2} (linker 7-11 via Pyridine(2,6-diCH2)) [DOTA-glu(AGLU)-Asp-Trp-5Clw-Tap-Glu-leu-[Cys(2Lut)-Apc(AGLU-Glutar)-Leu-Ile-Cys]-APAc-glu(AGLU)-NH2], B2, {AGLU-Glutaryl}-DW[Trp(5-Cl)][Pro(trans-4-NH2)]E[dL]C[Api](N4Ac)LIC-{APAc-dE(AGLU)-NH2} (linker 7-11 via Pyridine(2,6-diCH2)) [AGLU-Glutar-Asp-Trp-5Clw-Tap-Glu-leu-[Cys(2Lut)-Apc(N4Ac)-Leu-Ile-Cys]-APAc-glu(AGLU)-NH2], {AGLU-Glutaryl}-DW[Trp(5-Cl)][Pro(trans-4-NH2)]E[dL]C[Api](NODAGA)LIC-{APAc-dE(AGLU)-NH2} (linker 7-11 via Pyridine(2,6-diCH2)) [AGLU-Glutar-Asp-Trp-5Clw-Tap-Glu-leu-[Cys(2Lut)-Apc(NODAGA)-Leu-Ile-Cys]-APAc-glu(AGLU)-NH2], B3, Ac-D[Trp(6-F)][1Nal]PE[dL]C[Aib]LIC-{Ttds(4)-K(DOTA)-NH2} (linker 7-11 via mXylylene) [Ac-Asp-6Fw-1Ni-Pro-Glu-leu-[Cys(3MeBn)-Aib-Leu-Ile-Cys]-Ttds-Lys(DOTA)-NH2], B4, B5
